A short description of this data set: soluble on expression in E. coli; label from the status in PepcDB or PDB records.
Take “MGSDKIHHHHHHMTGRNILTESESDRGRVLFSPAFRRLQQKAQVFSMEPNAAVRSRLTHSFEVSQIGRYIADLLSEKLGIATEQQAGALVNFVETACLMHDIGNPPFGHFGEEAIKKWFEDNGERCLRLSIGRPKPSDGACPDQAKVRDALVDFADFDGNPQGLRIVARLQWNTDEFGLNLTKTSLASFMKYIRMAGGEKSGIFTKKAGYFTTERDLVESVWREFGYELPQRFPLAYIMEAADDIAYCISDLEDSFEKDIVRPDDALSYVEEQYERHEFEDGDPKHVDIRRAIRQMRAKERESGGEFTFTDFRTSLNNVIVNYVADRYVENHSKILDGTLESLIPGNEPPGAILNAIRKFCREHVYTHESVQRVELAGYNAIRGLLEQCSSLLCISAEGFRAARANEKQDAKGQALVLEPKLLRLFPEKYIKVYDYHLKQAGGDEADPFLEWTYRAHLIVDFISGMTDDFAMTTYRTLAGMRL”: the “soluble on expression in E. coli” value was “not soluble”.
The value for “ISEFGSSRMLTTLIYRSQVHPDRPPVDLDALVHRASSKNLPLGITGILLFNGLQFFQVLEGTEEALESLFSEIQSDPRHRDVVELMRDYSAYRRFHGTGMRILDLRLFETDGALEEILRFSTFGVTEPVNDRMFRLLSAFIADGGRYCLPEPLQPSRWMMMPASGTAAPQHLPGQPCQFALQAIVEPAKKRVSSFEALIRSPTGGSPVEMFAAIAAEDRYRFDLESKAYAFALAGQLPLGKHQLAINLLPGSLYHHPDAVGWLMDSLLAAGLRPDQVLIEVTETEVITCFDQFRKVLKALRVAGMKLAIDDFGAGYSGLSLLTRFQPDKIKVDAELVRDIHISGTKQAIVASVVRCCEDLGITVVAEGVETLEEWCWLQSVGIRLFQGFLFSRPCLNGIGEICWPVARQAMDL” was “soluble”; that for “MDVADSTSETPPVFDHDNLALAAQTNLLQFYLTHLASTLVPPMKLDMRDSMTPSFSQTESPNSETDDSTSAANKVLFSILGTPTTDSTSNAVSKSSSKLCSVCGDKSTGLHYGAATCEGCKGFFKRSVQNKKVYHCSQDNCCEIDKQNRNRCQSCRFRKCISKGMLTEAVREDRMPGGRNGNSIYSNYKQRRSIIRKTKDYVEEQERRPFQSLPSGKKLIKELVEMDCLDRLINLKGLRINPSANCDIAPACKRLTRIGDEIVEQLVEWTKTLPFFDELPVEAHTHLLTQRWAELVLLSAGYYACSVFTPDSPDTTEMIDETDEISFTNPQVNLRLLQNRLSLVLGKEIPLEHVAKEAGPLVTRFTTLLHSFSNLKVSPEAYVCIKAITLLHLSADSTLDRSIIDKVNTLQDHFVKTLQIHLHQPGEDAQTTSLAQILDWLPDLRNASSVLLHSKMFYVPFLLCKNPRRLVFDE” was “not soluble”; that for “MQITTTFRHMEQSEALKSYAAEKLERVKKYIDEPITAQVFLTVEKIRHIAEVTLTAKGITIKAAEETNDMYAALDAVIDKIERQLRRYKERLKEHKPSADDRALEIQKSVVTAESIEQRTEPVVIRSKTISIKPMSVEEAVMQMDLLHKDFLVFTDASTEAINVVYRRKDGNYGLIEPQRKLEHHHHHH” was “soluble”.
The value for “MGSDKIHHHHHHMAEIEQALASPQLIAEKVLKLPSKVLELDRKLADPQFDTKDLLALIEQDPLLSVEVLKLCNSPAFKRGEREVTSLQQALVQLGREQLRRFVTSSLVREMLDIKPIYFRRFGAEIWRHSMQVAFLASELSEEDRDTAFLLGLLHDVGKLAIFKMLLDAFVQAEPGEQPNSWLFRQVMTAKSLTLSALLAKHWQLPSTFETELDKLAHVHTRPNEGIAAVVWRANVISEISMLQQASKLPADMLSNLLALVGLEQAQFDELHEKLQQF” was “not soluble”; that for “MKFRRSGRLVDLTNYLLTHPHELIPLTFFSERYESAKSSISEDLTIIKQTFEQQGIGTLLTVPGAAGGVKYIPKMKQAEAEEFVQTLGQSLANPERILPGGYVYLTDILGKPSVLSKVGKLFASVFAEREIDVVMTVATKGIPLAYAAASYLNVPVVIVRKDNKVTEGSTVSINYVSGSSNRIQTMSLAKRSMKTGSNVLIIDDFMKAGGTINGMINLLDEFNANVAGIGVLVEAEGVDERLVDEYMSLLTLSTINMKEKSIEIQNGNFLRFFKDNLLKNGETESHHHHHH” was “soluble”; that for “PQTLYQKLVETHTVARLDSQNVLLYADLHIMNEYTSPQAFAGLAEAGRTVLQPGQNVSVVDHIIPTHPVAIRIIEEPNSALQASNLKKNCERHGIPLFDANNRFQGIEHVIAPELGMIRPGMVVLCGDSHTTTYGALGALGFGIGTSEVEHVLATQTLVYRLAPT” was “not soluble”.
The value for “MSLSDKDKRRLEYKELAKESKAKSKMLAASQGKGLVAKIAIGSALGNIIGNAMSKAAGGLLGFAKKAVEEKSKTNRAKLLNSAFFEKDERNTIMGTLKGMKGFERDLEKEEFLNQASVFKGTLRDLGMLNLTNLKKAVEFSAALKSSGAMSGEDAVKAVNSLLSGEGDELFDLLKKSGVGDKYIEDAKKAWQSGAEVDLESRITMLVEMFKDFKSFGITKKADTKEEIDSNLASAEQTLSNLTTTVLDPLLKFIKMVTGLSEGHHHHHH” was “soluble”; that for “MSEKTYELATFAGGCFWCMVKPFDELPDIHKVLSGYAGGHVENPTYEQVKAGTSGHLEVVQITFDPSIFPYEKLLNLYWPQIDPTDDGGQFFDRGPSYRTAIFYHTETQKELAEKSKHSLAESGMFKDPIVTEIRPAAPFYEAEEYHQHFYKKNPEKYATEQKESGREDFIKENWQKK” was “not soluble”.
As for “MQTSIISAQSLSKLVSTNQEHLTILKQVNLSIQAGESVAIVGASGAGKSTLMTLLAGLDTPSEGEVYLLGKPLSQLDDEARAALRSESVGFVFQSFLLIPSLSALENVTLPCLLKGEAEDRERAQKLLKAVGLEHRMHHSPAQLSGGEQQRVAIARAFMISPQVLFADEPTGNLDQETAAKVIDLLFELNREHGTTLVLVTHDPKLAQRCQRRFFMQAGELEERV”, the “soluble on expression in E. coli” value is “not soluble”.
As for “MAAGSEATTPVIVAAGAGGEEGEHVKPFKPEKAKEIIMSLQQPAIFCNMVFDWPARHWNAKYLSQVLHGKQIRFRMGMKSMSTVPQFETTCNYVEATLEEFLTWNCDQSSISGPFRDYDHSKFWAYADYKYFVSLFEDKTDLFQDVKWSDFGFPGRNGQESTLWIGSLGAHTPCHLDSYGCNLVFQVQGRKRWHLFPPEDTPFLYPTRIPYEESSVFSKINVVNPDLKRFPQFRKAQRHAVTLSPGQVLFVPRHWWHYVESIDPVTVSINSWIELEEDHLARVEEAITRMLVCALKTAENPQNTRAWLNPTEVEETSHAVNCCYLNAAVSAFFDRCRTSEVVEIQALRTDGEHMKKEELNVCNHMEVGQTGSQNLTTGTDKPEAASPFGPDLVPVAQRSEEPPSERGGIFGSDGKDFVDKDGEHFGKLHCAKRQQIMSNSENAIEEQIASNTTTTPQTFISTDDLLDCLVNPQVTRIVAQLLIQGRSL”, the “soluble on expression in E. coli” value is recorded as “not soluble”.
The value for “MAAPILFWHRRDLRLSDNIGLAAARAQSAQLIGLFCLDPQILQSADMAPARVAYLQGCLQELQQRYQQAGSRLLLLQGDPQHLIPQLAQQLQAEAVYWNQDIEPYGRDRDGQVAAALKTAGIRAVQLWDQLLHSPDQILSGSGNPYSVYGPFWKNWQAQPKPTPVATPTELVDLSPEQLTAIAPLLLSELPTLKQLGFDWDGGFPVEPGETAAIARLQEFCDRAIADYDPQRNFPAEAGTSGLSPALKFGAIGIRQAWQAASAAHALSRSDEARNSIRVWQQELAWREFYQHALYHFPSLADGPYRSLWQQFPWENREALFTAWTQAQTGYPIVDAAMRQLTETGWMHNRCRMIVASFLTKDLIIDWRRGEQFFMQHLVDGDLAANNGGWQWSASSGMDPKPLRIFNPASQAKKFDATATYIKRWLPELRHVHPKDLISGEITPIERRGYPAPIVNHNLRQKQFKALYNQLKAAIAEPEAEPDS” was “soluble”; that for “MHIEFREFNPFDVWIWLKFSNVPSEREKQYVEEVFNSWFYLGKLGAFNAENLQVQDTGLDISYMDYDPSAYNKSFLALMHNMSEFEYEGEWGRCWFDLGTSDAIALDLLLNSLTQLSEEYVTIEILYIGGENSDWPVEDSETHANADSIYDY” was “not soluble”; that for “MGSDKIHHHHHHMDRFDLGIVKVHRIEEWRGTFSPPAELFDGFSPDGWEPHAEEFAPEYYDPVSGKLFAFLQSWVLDTGTQRILFDTGAGNDKDRPNLPIFGNLQTGFLDNLAAAGFQPEDIDVVVCSHIHVDHVGWNTRLVDGRWEPTFRNARYVLPLADRAYWDPQDASAGPAGIGAAVNAGMFDDSVRPIIEAGRAEWAEDGFEVAEGLVLRSCPGHTPGSMMLEVSGGEDTAMFVGDVVHHPAQIYRPEWNSIFCEAPEDARETRRRVLDLAASREALLIPAHFGGSHMARVLRDGSGFRPVLDPMGSG” was “not soluble”.
As for “SGQKASQQVAPKDSQEVLAMCEVVSAAISHAAQKLKEYLGFEYPLSRLCLAASSLTEVFLVHFVTFCQERGADEWLTTTKMTKHQAWLFGADWIWTFWGPDKEIRLQVAVQTLRMASLPLTDPKSCESRGEESWKKGRFDKLQEFCNLVGEDCLGLFIIFGVPGEPKAIRGVVLESVRNGMMESQLPGRKAVEQFVLETKDCVSIKELLGNCLSKRDGLSDMGRVYIRIL”, the “soluble on expression in E. coli” value is listed as “soluble”.
“MSLTETLDNTQDLLMDVDKYNFWEVEGEDAAGEVNSKDMDMVGVDEKSGAPVFRLTDNNDEQPLNENENGNFKFKMNTIATENMAYLTEKDKYKLYPSKVPGYDNSREYSSYVSKVFELYNDLDEHRVYSAPTIGIINKSYAREHNYVLNVAFESFVTELNFFIESIKNDPNLINRVLQLEESITILNCLKTIHFTFDSLQNESDSREQFVNSLIDWVNRSDGEPKEEYIEQIFTRNDNIEVFNTLQFWKLVNKLLLRGLFEQALGCLERSKIMDFLKSQCEVSANILGDAIALLEQYPIDSSETFREWKFMVLGLQQTYSNSNTKITGELRDYIEDTLLLIGGNQSKLLQYSSTWYEAYASFYLYYIPTLELSHDYLELALSTHPLDLTKNWEQACVNIINNKIYSILPVLESLDLCTAATTAALCEAKGILENFLDDDTKTFKGNVDKLVTPVHGMASYLLNQFAFELCSQEEKTLWPVAIGLISISPFESASVKRTTISEVLPRFPFSTNDDIEWMLAVCAKWRLPKIAKKIYKILGSKLQAEGNVIESMTNFSKAGEFDIVKNEGHHHHHH”: the “soluble on expression in E. coli” value was “soluble”.
As to “MGSDKIHHHHHHSCDNDDDESIAVPTPLQEAFSTRYPNVKNVKWETKAGYYVADFYDGYEASAWFTTDGNWHMTETDIPYTALPDPVKSAFEASDYKTWKRDDVDKLERQGIETVYVIEVENQNQEVDLYYSADGVLIKSIADTDDHENEHLPTTQLPAVMKTFIDGKYAGARIVEVDVEDDKNDWDFGFTEVDIIHFDSGLNRNVSKEVLFDKGREWYSTSWEVRRNELPTAVTNAISTEYAGYQMDDAEYFEMATETSYYQIELEGNNSPDIDIKVTADGTILK”, the “soluble on expression in E. coli” value was “not soluble”.
“MTINEPLLSPLEQVVRNIEQVIVGKRNVIVLSLTALLAKGHVLLEDVPGVGKTMLVRALAKSFSAELKRIQFTPDLLPSDVIGVSVYNPKTQQFEYKPGPIVAHIVLADEINRTSPKTQSALLEAMEEGSVTVDGVTRALPQPFFVMATQNPIEYEGTYPLPEAQLDRFLLKLHMRYPSPDEEIEMLNRLEKTAPLAEIGPVMSLDELLALQRKVADVHVSDTVKRYIVDLIQQSRQHEAVYLGVSPRGSVALMKAAQAYAFIHGRDFVIPDDVQQLAPYVLAHRLLVRPEAKWDKFDAETIIGQLIARTPVPVPGRR”: the “soluble on expression in E. coli” value is listed as “not soluble”.

(Values after the DeepSol protein solubility set.)
